Each block holds one binder with its values, some of them ahead of it.
Legend:
Assay in all cases: holdup assay
Set-up in all cases: key: below the threshold = too weak to quantify, mostly under pKd 3.1 to 4
ARHGEF11, O15085 = molecular target: T1, ARHGEF11, O15085
T1 sequence (O15085 42-136, limits assumed, looked up): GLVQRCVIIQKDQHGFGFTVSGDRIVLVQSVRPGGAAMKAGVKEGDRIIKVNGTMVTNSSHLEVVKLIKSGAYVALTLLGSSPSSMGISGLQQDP

MPP6, Q9NZW5 = molecular target: T2, MPP6, Q9NZW5
T2 sequence (Q9NZW5 125-219, limits assumed, looked up): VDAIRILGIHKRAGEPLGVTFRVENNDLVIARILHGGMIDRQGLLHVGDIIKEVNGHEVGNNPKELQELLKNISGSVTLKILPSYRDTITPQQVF

RAPGEF6, Q8TEU7 = molecular target: T3, RAPGEF6, Q8TEU7
T3 sequence (Q8TEU7 525-625, limits assumed, looked up): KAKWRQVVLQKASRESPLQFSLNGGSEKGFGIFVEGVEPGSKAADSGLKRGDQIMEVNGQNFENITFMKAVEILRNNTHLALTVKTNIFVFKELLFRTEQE

ARHGEF12, Q9NZN5-2 = molecular target: ARHGEF12, Q9NZN5-2
Chain of ARHGEF12, Q9NZN5-2 (Q9NZN5 other isoform, or with tags, fused parts or gaps): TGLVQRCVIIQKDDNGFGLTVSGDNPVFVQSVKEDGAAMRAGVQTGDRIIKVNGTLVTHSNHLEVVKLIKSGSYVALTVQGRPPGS

SIPA1L2, Q9P2F8 = molecular target: T4, SIPA1L2, Q9P2F8
T4 sequence (Q9P2F8 945-1036, limits assumed, looked up): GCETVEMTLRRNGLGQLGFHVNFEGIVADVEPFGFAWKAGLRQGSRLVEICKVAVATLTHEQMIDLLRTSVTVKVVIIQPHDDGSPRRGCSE

PTPN13_1, Q12923 = molecular target: T5, PTPN13_1, Q12923
T5 sequence (Q12923 1088-1188, limits assumed, looked up): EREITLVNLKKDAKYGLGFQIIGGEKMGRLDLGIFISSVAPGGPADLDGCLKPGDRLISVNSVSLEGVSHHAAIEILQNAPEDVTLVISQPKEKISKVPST

MPDZ_5, O75970 = molecular target: T6, MPDZ_5, O75970
T6 sequence (O75970 695-796, limits assumed, looked up): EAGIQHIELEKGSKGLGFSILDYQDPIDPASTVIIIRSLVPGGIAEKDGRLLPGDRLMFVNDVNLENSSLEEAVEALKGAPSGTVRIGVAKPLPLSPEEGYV

IL16_4, Q14005 = molecular target: IL16_4, Q14005
Chain of IL16_4, Q14005 (Q14005 1229-1329): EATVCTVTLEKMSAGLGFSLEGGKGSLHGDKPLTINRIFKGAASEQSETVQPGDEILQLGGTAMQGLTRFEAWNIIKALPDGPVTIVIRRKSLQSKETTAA

ARHGAP21, Q5T5U3 = molecular target: T7, ARHGAP21, Q5T5U3
T7 sequence (Q5T5U3 45-169, limits assumed, looked up): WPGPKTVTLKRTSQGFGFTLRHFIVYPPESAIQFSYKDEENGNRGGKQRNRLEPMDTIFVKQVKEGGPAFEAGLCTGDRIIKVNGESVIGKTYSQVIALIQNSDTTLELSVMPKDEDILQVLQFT

GIPC2, Q8TF65 = molecular target: GIPC2, Q8TF65
Chain of GIPC2, Q8TF65 (Q8TF65 112-203): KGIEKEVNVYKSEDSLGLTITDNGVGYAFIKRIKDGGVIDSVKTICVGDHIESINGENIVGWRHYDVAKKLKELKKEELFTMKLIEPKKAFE

Inadl_2, Q8NI35 = molecular target: Inadl_2, Q8NI35
Chain of Inadl_2, Q8NI35 (Q8NI35 238-335): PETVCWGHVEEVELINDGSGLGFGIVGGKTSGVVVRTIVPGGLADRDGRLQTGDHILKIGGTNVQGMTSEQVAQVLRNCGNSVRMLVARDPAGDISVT

CARD11, Q9BXL7 = molecular target: T8, CARD11, Q9BXL7
T8 sequence (Q9BXL7 662-765, limits assumed, looked up): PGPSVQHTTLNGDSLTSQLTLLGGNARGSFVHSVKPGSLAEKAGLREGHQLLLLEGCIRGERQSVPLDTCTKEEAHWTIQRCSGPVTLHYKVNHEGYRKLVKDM

MAGI1_2, Q96QZ7 = molecular target: MAGI1_2, Q96QZ7
Chain of MAGI1_2, Q96QZ7 (Q96QZ7 456-580): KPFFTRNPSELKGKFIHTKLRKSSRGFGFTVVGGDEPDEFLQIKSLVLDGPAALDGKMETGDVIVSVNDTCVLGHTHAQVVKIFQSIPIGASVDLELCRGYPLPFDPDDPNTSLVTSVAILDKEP

MPDZ_10, O75970 = molecular target: T9, MPDZ_10, O75970
T9 sequence (O75970 1624-1722, limits assumed, looked up): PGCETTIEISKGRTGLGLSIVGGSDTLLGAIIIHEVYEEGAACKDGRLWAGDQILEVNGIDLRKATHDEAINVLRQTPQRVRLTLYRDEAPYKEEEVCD

PDLIM1, O00151 = molecular target: PDLIM1, O00151
Chain of PDLIM1, O00151 (O00151 1-87): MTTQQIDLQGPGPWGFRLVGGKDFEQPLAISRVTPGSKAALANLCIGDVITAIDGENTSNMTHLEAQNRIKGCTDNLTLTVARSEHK

HTRA2, O43464 = molecular target: HTRA2, O43464
Chain of HTRA2, O43464 (O43464 355-458): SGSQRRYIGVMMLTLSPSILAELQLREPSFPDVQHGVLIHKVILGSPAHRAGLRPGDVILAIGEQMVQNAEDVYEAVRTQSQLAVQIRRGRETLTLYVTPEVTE

PTPN3, P26045 = molecular target: PTPN3, P26045
Chain of PTPN3, P26045 (P26045 505-587): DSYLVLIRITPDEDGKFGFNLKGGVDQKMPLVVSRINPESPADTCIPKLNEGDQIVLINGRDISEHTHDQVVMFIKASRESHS

Inadl_6, Q8NI35 = molecular target: Inadl_6, Q8NI35
Chain of Inadl_6, Q8NI35 (Q8NI35 1058-1167): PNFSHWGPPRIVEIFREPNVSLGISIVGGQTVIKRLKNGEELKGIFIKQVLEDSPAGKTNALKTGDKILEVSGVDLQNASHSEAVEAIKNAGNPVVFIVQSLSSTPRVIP

TJP1_3, Q07157 = molecular target: TJP1_3, Q07157
Chain of TJP1_3, Q07157 (Q07157 416-512): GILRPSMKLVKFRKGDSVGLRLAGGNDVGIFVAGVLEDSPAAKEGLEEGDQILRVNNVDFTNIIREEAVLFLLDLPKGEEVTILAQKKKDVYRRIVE

Inadl_3, Q8NI35 = molecular target: Inadl_3, Q8NI35
Chain of Inadl_3, Q8NI35 (Q8NI35 359-469): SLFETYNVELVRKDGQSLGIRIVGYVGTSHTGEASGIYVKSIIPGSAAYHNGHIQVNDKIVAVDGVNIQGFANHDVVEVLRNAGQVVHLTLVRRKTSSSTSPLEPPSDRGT

NHERF4_4, Q86UT5 = molecular target: NHERF4_4, Q86UT5
Chain of NHERF4_4, Q86UT5 (Q86UT5 464-550): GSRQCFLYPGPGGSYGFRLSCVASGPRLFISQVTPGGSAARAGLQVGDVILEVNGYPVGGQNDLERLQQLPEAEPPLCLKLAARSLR

DVL3, Q92997 = molecular target: T10, DVL3, Q92997
T10 sequence (Q92997 244-331, limits assumed, looked up): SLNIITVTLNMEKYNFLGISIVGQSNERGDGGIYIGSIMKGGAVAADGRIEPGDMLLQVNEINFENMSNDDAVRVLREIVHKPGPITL

LIN7C, Q9NUP9 = molecular target: T11, LIN7C, Q9NUP9
T11 sequence (Q9NUP9 88-185, limits assumed, looked up): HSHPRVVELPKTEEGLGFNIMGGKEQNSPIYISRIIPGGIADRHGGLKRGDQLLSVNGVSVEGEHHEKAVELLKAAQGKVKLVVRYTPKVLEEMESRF

RADIL, Q96JH8 = molecular target: T12, RADIL, Q96JH8
T12 sequence (Q96JH8 971-1071, limits assumed, looked up): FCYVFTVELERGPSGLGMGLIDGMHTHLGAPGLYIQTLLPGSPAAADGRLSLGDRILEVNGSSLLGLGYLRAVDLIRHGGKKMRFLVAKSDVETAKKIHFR

GRIP2_5, Q9C0E4 = molecular target: GRIP2_5, Q9C0E4
Chain of GRIP2_5, Q9C0E4 (Q9C0E4 544-642): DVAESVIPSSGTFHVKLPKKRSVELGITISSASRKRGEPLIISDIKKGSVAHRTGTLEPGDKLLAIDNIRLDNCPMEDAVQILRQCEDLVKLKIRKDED

[1] = plain residues with an end cap or a label only (N-terminal biotin on a linker: ahx)
[2] = plain residues with an end cap or a label only (N-terminal biotin on a linker: ttds)
[3] = plain residues with an end cap or a label only (N-terminal biotin on a linker: ado-ado)

pKd (ARHGEF11, O15085; [1]): 3.59
pKd (MPP6, Q9NZW5; [1]): 3.5
pKd (RAPGEF6, Q8TEU7; [1]): below the threshold
pKd (ARHGEF12, Q9NZN5-2; [1]): below the threshold
pKd (SIPA1L2, Q9P2F8; [1]): below the threshold
pKd (PTPN13_1, Q12923; [1]): below the threshold
pKd (MPDZ_5, O75970; [1]): 3.49
pKd (IL16_4, Q14005; [1]): 3.58
pKd (ARHGAP21, Q5T5U3; [1]): 3.5
pKd (GIPC2, Q8TF65; [1]): below the threshold
pKd (Inadl_2, Q8NI35; [1]): below the threshold
pKd (CARD11, Q9BXL7; [1]): below the threshold
pKd (MAGI1_2, Q96QZ7; [1]): 3.61
pKd (MPDZ_10, O75970; [1]): 3.75
pKd (PDLIM1, O00151; [1]): below the threshold
pKd (HTRA2, O43464; [1]): below the threshold
pKd (PTPN3, P26045; [1]): below the threshold
pKd (Inadl_6, Q8NI35; [1]): below the threshold
pKd (TJP1_3, Q07157; [1]): below the threshold
pKd (Inadl_3, Q8NI35; [1]): 3.66
pKd (NHERF4_4, Q86UT5; [1]): below the threshold
pKd (DVL3, Q92997; [1]): below the threshold
pKd (LIN7C, Q9NUP9; [1]): 3.68
pKd (RADIL, Q96JH8; [1]): 3.61
pKd (GRIP2_5, Q9C0E4; [1]): below the threshold
Binder: HNAFLSVTTV [PDZRN4, Q6ZMN7]

pKd (ARHGEF11, O15085; [2]): 3.76
pKd (MPP6, Q9NZW5; [2]): below the threshold
pKd (RAPGEF6, Q8TEU7; [2]): below the threshold
pKd (ARHGEF12, Q9NZN5-2; [2]): 3.89
pKd (SIPA1L2, Q9P2F8; [2]): below the threshold
pKd (PTPN13_1, Q12923; [2]): below the threshold
pKd (MPDZ_5, O75970; [2]): below the threshold
pKd (IL16_4, Q14005; [2]): below the threshold
pKd (ARHGAP21, Q5T5U3; [2]): below the threshold
pKd (GIPC2, Q8TF65; [2]): below the threshold
pKd (Inadl_2, Q8NI35; [2]): below the threshold
pKd (CARD11, Q9BXL7; [2]): below the threshold
pKd (MAGI1_2, Q96QZ7; [2]): below the threshold
pKd (MPDZ_10, O75970; [2]): below the threshold
pKd (PDLIM1, O00151; [2]): below the threshold
pKd (HTRA2, O43464; [2]): below the threshold
pKd (PTPN3, P26045; [2]): 4.86
pKd (Inadl_6, Q8NI35; [2]): below the threshold
pKd (TJP1_3, Q07157; [2]): below the threshold
pKd (Inadl_3, Q8NI35; [2]): below the threshold
pKd (NHERF4_4, Q86UT5; [2]): below the threshold
pKd (DVL3, Q92997; [2]): below the threshold
pKd (LIN7C, Q9NUP9; [2]): 4.07
pKd (RADIL, Q96JH8; [2]): below the threshold
pKd (GRIP2_5, Q9C0E4; [2]): below the threshold
Binder: EVVHTPETSV [SLC16A3, O15427]

pKd (ARHGEF11, O15085; [3]): below the threshold
pKd (MPP6, Q9NZW5; [3]): 3.63
pKd (RAPGEF6, Q8TEU7; [3]): below the threshold
pKd (ARHGEF12, Q9NZN5-2; [3]): below the threshold
pKd (SIPA1L2, Q9P2F8; [3]): below the threshold
pKd (PTPN13_1, Q12923; [3]): below the threshold
pKd (MPDZ_5, O75970; [3]): below the threshold
pKd (IL16_4, Q14005; [3]): below the threshold
pKd (ARHGAP21, Q5T5U3; [3]): below the threshold
pKd (GIPC2, Q8TF65; [3]): below the threshold
pKd (Inadl_2, Q8NI35; [3]): below the threshold
pKd (CARD11, Q9BXL7; [3]): below the threshold
pKd (MAGI1_2, Q96QZ7; [3]): below the threshold
pKd (MPDZ_10, O75970; [3]): below the threshold
pKd (PDLIM1, O00151; [3]): below the threshold
pKd (HTRA2, O43464; [3]): below the threshold
pKd (PTPN3, P26045; [3]): below the threshold
pKd (Inadl_6, Q8NI35; [3]): below the threshold
pKd (TJP1_3, Q07157; [3]): below the threshold
pKd (Inadl_3, Q8NI35; [3]): below the threshold
pKd (NHERF4_4, Q86UT5; [3]): below the threshold
pKd (DVL3, Q92997; [3]): below the threshold
pKd (LIN7C, Q9NUP9; [3]): 3.82
pKd (RADIL, Q96JH8; [3]): below the threshold
pKd (GRIP2_5, Q9C0E4; [3]): below the threshold
Binder: PLSPEQPTKL [TRIM50, Q86XT4]

pKd (ARHGEF11, O15085; [1]): 4.6
pKd (MPP6, Q9NZW5; [1]): below the threshold
pKd (RAPGEF6, Q8TEU7; [1]): below the threshold
pKd (ARHGEF12, Q9NZN5-2; [1]): 4.66
pKd (SIPA1L2, Q9P2F8; [1]): below the threshold
pKd (PTPN13_1, Q12923; [1]): below the threshold
pKd (MPDZ_5, O75970; [1]): below the threshold
pKd (IL16_4, Q14005; [1]): below the threshold
pKd (ARHGAP21, Q5T5U3; [1]): below the threshold
pKd (GIPC2, Q8TF65; [1]): 3.73
pKd (Inadl_2, Q8NI35; [1]): below the threshold
pKd (CARD11, Q9BXL7; [1]): below the threshold
pKd (MAGI1_2, Q96QZ7; [1]): below the threshold
pKd (MPDZ_10, O75970; [1]): below the threshold
pKd (PDLIM1, O00151; [1]): 4.41
pKd (HTRA2, O43464; [1]): below the threshold
pKd (PTPN3, P26045; [1]): 4.27
pKd (Inadl_6, Q8NI35; [1]): 4.8
pKd (TJP1_3, Q07157; [1]): below the threshold
pKd (Inadl_3, Q8NI35; [1]): 3.72
pKd (NHERF4_4, Q86UT5; [1]): below the threshold
pKd (DVL3, Q92997; [1]): below the threshold
pKd (LIN7C, Q9NUP9; [1]): 3.71
pKd (RADIL, Q96JH8; [1]): below the threshold
pKd (GRIP2_5, Q9C0E4; [1]): below the threshold
Binder: GYDWGPATDL [TJP3, O95049]

pKd (ARHGEF11, O15085; [1]): below the threshold
pKd (MPP6, Q9NZW5; [1]): below the threshold
pKd (RAPGEF6, Q8TEU7; [1]): below the threshold
pKd (ARHGEF12, Q9NZN5-2; [1]): below the threshold
pKd (SIPA1L2, Q9P2F8; [1]): below the threshold
pKd (PTPN13_1, Q12923; [1]): below the threshold
pKd (MPDZ_5, O75970; [1]): below the threshold
pKd (IL16_4, Q14005; [1]): below the threshold
pKd (ARHGAP21, Q5T5U3; [1]): below the threshold
pKd (GIPC2, Q8TF65; [1]): below the threshold
pKd (Inadl_2, Q8NI35; [1]): below the threshold
pKd (CARD11, Q9BXL7; [1]): below the threshold
pKd (MAGI1_2, Q96QZ7; [1]): below the threshold
pKd (MPDZ_10, O75970; [1]): below the threshold
pKd (PDLIM1, O00151; [1]): below the threshold
pKd (HTRA2, O43464; [1]): below the threshold
pKd (PTPN3, P26045; [1]): below the threshold
pKd (Inadl_6, Q8NI35; [1]): below the threshold
pKd (TJP1_3, Q07157; [1]): below the threshold
pKd (Inadl_3, Q8NI35; [1]): below the threshold
pKd (NHERF4_4, Q86UT5; [1]): below the threshold
pKd (DVL3, Q92997; [1]): below the threshold
pKd (LIN7C, Q9NUP9; [1]): below the threshold
pKd (RADIL, Q96JH8; [1]): below the threshold
pKd (GRIP2_5, Q9C0E4; [1]): below the threshold
Binder: NRKREIFSNF [NHERF2, Q15599]
